The assay has as its target Full-length human KLHL41 GST fusion protein (human) (UniProt O60662). Nature of the assay: AlphaScreen or HTRF. On the technique in general: Alpha assays give light when donor and acceptor beads are brought close together.
Sequence of UniProt O60662 (O60662 whole entry, the tested form may be a part): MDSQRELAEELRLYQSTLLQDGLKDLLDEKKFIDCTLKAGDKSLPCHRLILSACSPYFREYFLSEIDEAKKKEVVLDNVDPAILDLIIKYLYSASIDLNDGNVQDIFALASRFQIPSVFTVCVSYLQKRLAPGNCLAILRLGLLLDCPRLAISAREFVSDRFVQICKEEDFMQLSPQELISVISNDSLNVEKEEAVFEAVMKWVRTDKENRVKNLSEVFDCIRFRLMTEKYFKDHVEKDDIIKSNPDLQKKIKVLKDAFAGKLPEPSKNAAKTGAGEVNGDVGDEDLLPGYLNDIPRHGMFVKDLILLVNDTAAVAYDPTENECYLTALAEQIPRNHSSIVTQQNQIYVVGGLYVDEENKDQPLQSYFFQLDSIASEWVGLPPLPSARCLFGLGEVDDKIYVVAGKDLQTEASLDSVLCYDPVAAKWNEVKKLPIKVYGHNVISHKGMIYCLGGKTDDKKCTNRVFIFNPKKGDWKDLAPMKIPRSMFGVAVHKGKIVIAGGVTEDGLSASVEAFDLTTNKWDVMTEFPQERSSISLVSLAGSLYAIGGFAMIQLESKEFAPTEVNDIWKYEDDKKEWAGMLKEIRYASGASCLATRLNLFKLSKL

Regarding “Human NEB (aa 5647-5849) MBP-HA fusion protein (from UniProt P20929 5647-5849) (domain or fragment)”, the delta F% (HTRF, 10nM KLHL41 and 100nM NEB) was 950%.
